Reference: publication PMC4304843, “Human Mitochondrial Hsp70 (Mortalin): Shedding Light on ATPase Activity, Interaction with Adenosine Nucleotides, Solution Structure and Domain Organization” (PLoS ONE, 2015)

Columns and labels:
[1] = target: Human Hsp70-1A, recombinant (human) (UniProt P0DMV8)
[2] = target: Human mitochondrial Hsp70 (mortalin), recombinant (human) (UniProt P38646)
Chain of Human mitochondrial Hsp70 (mortalin), recombinant (human) (P38646 47-679): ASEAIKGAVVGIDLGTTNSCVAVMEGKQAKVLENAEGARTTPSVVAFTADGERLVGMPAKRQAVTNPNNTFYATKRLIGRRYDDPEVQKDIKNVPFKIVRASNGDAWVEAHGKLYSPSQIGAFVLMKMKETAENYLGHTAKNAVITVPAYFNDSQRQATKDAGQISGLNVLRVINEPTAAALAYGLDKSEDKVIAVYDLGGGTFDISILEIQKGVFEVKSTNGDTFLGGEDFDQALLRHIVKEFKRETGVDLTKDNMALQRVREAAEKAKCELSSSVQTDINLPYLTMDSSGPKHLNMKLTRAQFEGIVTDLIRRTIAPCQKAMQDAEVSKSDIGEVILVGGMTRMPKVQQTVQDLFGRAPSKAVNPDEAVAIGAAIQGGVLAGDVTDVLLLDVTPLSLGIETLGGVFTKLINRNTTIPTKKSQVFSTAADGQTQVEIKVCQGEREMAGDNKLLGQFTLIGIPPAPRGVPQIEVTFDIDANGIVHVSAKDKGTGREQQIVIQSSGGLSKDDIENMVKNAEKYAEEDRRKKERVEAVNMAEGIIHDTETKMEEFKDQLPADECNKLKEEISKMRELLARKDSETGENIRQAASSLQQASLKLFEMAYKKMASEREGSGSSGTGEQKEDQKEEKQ

Chain of Human Hsp70-1A, recombinant (human) (P0DMV8 whole entry): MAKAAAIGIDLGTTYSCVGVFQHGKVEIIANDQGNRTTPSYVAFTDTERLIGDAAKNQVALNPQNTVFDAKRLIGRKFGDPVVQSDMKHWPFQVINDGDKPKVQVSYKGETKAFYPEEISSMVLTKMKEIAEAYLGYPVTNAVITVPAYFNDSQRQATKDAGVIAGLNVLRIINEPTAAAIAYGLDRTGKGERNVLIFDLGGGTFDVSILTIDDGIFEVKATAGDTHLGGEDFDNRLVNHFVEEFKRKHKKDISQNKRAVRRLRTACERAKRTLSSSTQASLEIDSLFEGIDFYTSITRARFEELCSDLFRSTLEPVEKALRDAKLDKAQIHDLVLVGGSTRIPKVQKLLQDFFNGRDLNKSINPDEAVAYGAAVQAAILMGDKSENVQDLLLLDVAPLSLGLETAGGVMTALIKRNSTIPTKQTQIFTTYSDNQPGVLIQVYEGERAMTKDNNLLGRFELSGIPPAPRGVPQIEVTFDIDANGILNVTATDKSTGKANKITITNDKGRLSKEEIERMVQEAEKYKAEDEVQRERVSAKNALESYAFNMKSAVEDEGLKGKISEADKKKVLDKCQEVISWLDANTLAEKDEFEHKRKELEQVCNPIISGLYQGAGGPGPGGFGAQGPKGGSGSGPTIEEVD

EC50 of the stimulation of the basal ATPase activity of Hsp70-1A by NR peptide titration (1 mmol/L ATP, 37°C) [1]: 170 µM
relative stimulation of the basal ATPase activity of Hsp70-1A at increasing NR peptide concentrations; maximum reached at 500 μmol/L NR peptide [1]: 15%
B1: NR peptide (NRLLLTGY) (peptide)
peptide: NRLLLTGY
EC50 of the stimulation of the basal ATPase activity of mortalin by NR peptide titration (1 mmol/L ATP, 37°C) [2]: 7 µM
relative stimulation of the basal ATPase activity of mortalin at increasing NR peptide concentrations; maximum reached at 100 μmol/L NR peptide [2]: 25%
